Data published in patent publication US20180244777A1 (NUMAB THERAPEUTICS, published 2018).
Like-named read-outs stand apart in the source and are kept apart here.

Columns and labels:
[1] = target: T1, linear 15mer peptide derived from human CD3ε residues 2-16 (wild type of the substitution library, Set 1) (human); test: 15mer peptide array ELISA
T1 construct: Probed as a saturation mutagenesis library on a peptide array
T1 peptide: DGNEEMGGITQTPYK

[2] = target: T2, linear 15mer peptide derived from cynomolgus CD3ε residues 2-16 (wild type of the substitution library, Set 2) (cynomolgus); test: 15mer peptide array ELISA
T2 construct: Probed as a saturation mutagenesis library on a peptide array
T2 peptide: DGNEEMGSITQTPYQ

[3] = target: T3, linear 15mer peptides derived from human CD3ε residues 5-20 (Set 3) (human); test: peptide array ELISA, Set 3
T3 construct: also called peptides spanning residues 5-20
T3 peptide: EEMGGITQTPYKVSIS
Method: (§1) The binding of the antibodies to each of the synthesized peptides was tested by ELISA. The peptide arrays were incubated with primary antibody solution (overnight at 4° C.). After washing, the peptide arrays were incubated with a 1/1000 dilution of an antibody peroxidase conjugate (SBA, cat.nr.2010-05) for one hour at 25° C. After washing, the peroxidase substrate 2,2′-azino-di-3-ethylbenzthiazoline sulfonate (ABTS) and 2 μl/ml of 3% H₂O₂ were added. After one hour, the color development was measured. The color development was quantified with a charge coupled device (CCD)—camera and an image processing system.

[4] = target: T4, linear 15mer peptides derived from cynomolgus CD3ε residues 5-20 (Set 4) (cynomolgus); test: peptide array ELISA, Set 4
T4 construct: also called peptides spanning residues 5-20
T4 peptide: EEMGSITQTPYQVSIS
Method: as §1

[5] = target: T5, human CD3ε expressed on the cell surface of T cells (Jurkat cells; human CD8+ T cells) (human, UniProt P07766 23-207); test: cell-based or functional assay
[6] = target: T5, human CD3ε expressed on the cell …; test: cell-based ELISA on Jurkat cells
Method: (§2) Jurkat cells (clone E6-1), a human T cell line, were seeded at 300,000 cells/well in round bottom 96-well plates in 100 μl phosphate-buffered saline (PBS) containing 10% FBS. Five-fold serial dilutions of anti-CD3 rabbit monoclonal antibodies ranging from 90 nM to 0.0058 nM were added to the plates in 100 μl PBS containing 10% FBS. […] This secondary antibody was linked to the enzyme horseradish peroxidase (HRP). HRP activity was measured by addition of TMB substrate (3,3′,5,5′-tetramethylbenzidine, KPL, Cat. No. 53-00-00), which in a colorimetric reaction is processed by the HRP. The color intensity of the processed substrate is directly proportional to the amount of anti-CD3 antibody bound to Jurkat cells. To quantify color intensity, light absorbance (optical density) at the respective wave length was measured using a microtiter plate reader (Infinity reader M200 Pro, Tecan).
(§3) To correct for unspecific binding of the antibodies to unknown components presented on the cell surface of Jurkat cells, a CD3ε deficient derivative of the Jurkat T cell line (J.RT3-T3.5) was used. Binding of the monoclonal antibodies to this cell line was measured as described above for the Jurkat cells. For quantification of specific binding to Jurkat cells, the optical density for binding to the negative control was subtracted from the optical density for binding to Jurkat cells. Data were analyzed using a four-parameter logistic curve fit using the Softmax Data Analysis Software (Molecular Devices), and the molar concentration of anti-CD3 antibody required to reach 50% binding (EC₅₀, mid-OD of the standard curve) was derived from dose response curves.

[7] = target: T6, cynomolgus monkey CD3ε expressed on the surface of HSC-F T cells (cynomolgus monkey, UniProt Q95LI5 22-198); test: cell-based ELISA on cyno HSC-F T cells
T6 construct: whole, on cells; also called cyno HSC-F T cells
T6 sequence (Q95LI5 22-198): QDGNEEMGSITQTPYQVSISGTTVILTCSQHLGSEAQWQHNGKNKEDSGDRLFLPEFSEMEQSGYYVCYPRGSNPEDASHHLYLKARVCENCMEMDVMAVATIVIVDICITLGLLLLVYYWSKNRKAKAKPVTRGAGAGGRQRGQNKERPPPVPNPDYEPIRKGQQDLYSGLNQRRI

[8] = target: T7, cynomolgus monkey heterodimeric single-chain CD3εγ extracellular domain (cynomolgus monkey, UniProt Q95LI5 22-117; Q95LI7 23-113); test: SPR; ratio of the KDs for cyno and human single-chain CD3εγ
T7 sequence (Q95LI7 other isoform, or with tags, fused parts or gaps): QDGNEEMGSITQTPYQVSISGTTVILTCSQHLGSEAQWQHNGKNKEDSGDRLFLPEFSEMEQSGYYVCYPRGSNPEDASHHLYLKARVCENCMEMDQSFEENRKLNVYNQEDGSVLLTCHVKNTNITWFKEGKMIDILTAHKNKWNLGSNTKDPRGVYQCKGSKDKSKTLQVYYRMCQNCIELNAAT

[9] = target: T7, cynomolgus monkey heterodimeric …; test: SPR, rabbit IgG captured, cyno single-chain CD3εγ ECD injected
[10] = target: T7, cynomolgus monkey heterodimeric …; test: as above; remark: listed apart in the source
[11] = target: T8, human heterodimeric single-chain CD3εγ extracellular domain (human, UniProt P07766 23-126; P09693 23-116); test: SPR, rabbit IgG captured, human single-chain CD3εγ ECD injected
T8 construct: extracellular domain; Produced in-house; also called scCD3γε; human CD3ge
Method: (§4) Binding affinities of monoclonal rabbit anti-CD3 antibodies were measured by surface plasmon resonance (SPR) using a MASS-1 SPR instrument (Sierra Sensors). […] Rabbit monoclonal antibodies were captured by the immobilized anti-rabbit IgG antibody. Two-fold serial dilutions of human heterodimeric single-chain CD3εγ extracellular domain (produced in-house) ranging from 90 to 2.81 nM were injected into the flow cells for 3 min and dissociation of the protein from the IgG captured on the sensor chip was allowed to proceed for 5 min. After each injection cycle, surfaces were regenerated with two injections of 10 mM glycine-HCl. The apparent dissociation (kd) and association (ka) rate constants and the apparent dissociation equilibrium constant (KD) were calculated with the MASS-1 analysis software (Analyzer, Sierra Sensors) using one-to-one Langmuir binding model.

[12] = target: T8, human heterodimeric single-chain CD3εγ …; test: as above; remark: listed apart in the source
Method: as §4

[13] = target: T5, human CD3ε expressed on the cell …; test: cell-based ELISA on Jurkat cells, CD3ε-deficient Jurkat subtracted
Method: as §2, §3

mouse IL23R [14] = target: T9, mouse IL23R (mouse, UniProt Q8K4B4 24-374, limits assumed); test: SPR
T9 sequence (looked up): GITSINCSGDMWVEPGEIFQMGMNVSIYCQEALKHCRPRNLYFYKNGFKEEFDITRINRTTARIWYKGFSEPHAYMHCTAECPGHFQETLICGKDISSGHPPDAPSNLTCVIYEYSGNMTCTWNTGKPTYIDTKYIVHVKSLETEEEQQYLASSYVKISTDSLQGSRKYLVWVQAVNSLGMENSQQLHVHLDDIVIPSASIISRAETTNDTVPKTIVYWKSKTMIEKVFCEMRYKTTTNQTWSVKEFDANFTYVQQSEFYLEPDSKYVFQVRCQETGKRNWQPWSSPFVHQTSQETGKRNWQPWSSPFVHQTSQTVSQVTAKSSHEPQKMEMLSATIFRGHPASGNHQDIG

mouse CD3ε [15] = target: T10, mouse CD3ε (mouse, UniProt P22646 22-108, limits assumed); test: SPR
T10 sequence (P22646 22-108 limits assumed): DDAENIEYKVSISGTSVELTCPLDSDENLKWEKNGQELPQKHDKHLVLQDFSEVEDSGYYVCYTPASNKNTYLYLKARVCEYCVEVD

mouse IL23R [16] = target: T9, mouse IL23R; test: SPR; remark: listed apart in the source
mouse CD3ε [17] = target: T10, mouse CD3ε; test: SPR; remark: listed apart in the source

B1: clone-02 (antibody, V domains shown)
VH: QSLEESGGRLVTPGTPLTLTCTVSGFPLSAYAMIWVRQAPGKGLEWIGMIIRSGTVYYANWAKGRFTISKTSTTVDLKITSPTTEDTATYFCARRHYNADGYPIGIGDLWGPGTLVTVSS
VL: AQVLTQTPSSVSAVVGGTVTISCQSSESVYSNNRLSWFQQKPGQPPKLLIYSASTLASGVPSRFKGSGSGTQFTLTITDLECDDAATYFCQGEFSCSSVDCFSFGGGTEVVVKG
notes: Recombinant rabbit IgG; also called Clone 2
B1: binds [1]; binds [2]; no binding [3]. For the same binder, the binding result [4] was “no binding”, the “Fold increase in CD69 expression [MFI normalized to neg. ctrl.], 1.25 µg/ml anti-CD3 IgG” value [5] was 3.3 fold and the “Fold increase in CD69 expression [MFI normalized to neg. ctrl.], 5 µg/ml anti-CD3 IgG” value [5] was 4.6 fold. For the same binder, the “Fold increase in CD69 expression [MFI normalized to neg. ctrl.], 20 µg/ml anti-CD3 IgG” value [5] was 7.4 fold, the EC50 [6] was 0.71 nM and the EC50 [7] was 3.82 nM. The “KD (human)/KD (cyno)” value [8] was 13, the Kd [9] was 3.86 nM and the Kd [10] was 3.86 nM. For the same binder, the koff [10] was 0.00258 s⁻¹, the kon [10] was 668000 M⁻¹ s⁻¹ and the Kd [11] was 0.304 nM. It also gave a Kd [12] of 0.304 nM, a koff [12] of 0.000264 s⁻¹ and a kon [12] of 869000 M⁻¹ s⁻¹. The EC50 [13] was 0.71 nM.

B2: clone-06 (antibody, V domains shown)
VH: QSVEESGGRLVTPGTPLTLTCTVSGFPLSSYAMIWVRQAPGKGLEWIGMILRAGNIYYASWVKGRVTISKTSTTVDLKITSPTTEDTATYFCARRHYNREGYPIGIGDLWGPGTLVTVSS
VL: AQVLTQTPSSVSAAVGGTVTISCQSSESVYNNKRLSWFQQKPGQPPKQLIYTASSLASGVPSRFKGSGSGTQFTLTISDLECDDAATYYCQGEFTCSNADCFTFGGGTEVVVKG
notes: Recombinant rabbit IgG; also called Clone 6
B2: binds [1]; binds [2]; no binding [3]. The binding result [4] was “no binding”, the “Fold increase in CD69 expression [MFI normalized to neg. ctrl.], 1.25 µg/ml anti-CD3 IgG” value [5] was 2.7 fold and the “Fold increase in CD69 expression [MFI normalized to neg. ctrl.], 5 µg/ml anti-CD3 IgG” value [5] was 5.1 fold. The “Fold increase in CD69 expression [MFI normalized to neg. ctrl.], 20 µg/ml anti-CD3 IgG” value [5] was 5.3 fold, the EC50 [6] was 0.67 nM and the EC50 [7] was 1.6 nM. The “KD (human)/KD (cyno)” value [8] was 4, the Kd [9] was 8.95 nM and the Kd [10] was 8.95 nM. It also gave a koff [10] of 0.00397 s⁻¹, a kon [10] of 444000 M⁻¹ s⁻¹ and a Kd [11] of 2.23 nM. For the same binder, the Kd [12] was 2.23 nM, the koff [12] was 0.00138 s⁻¹ and the kon [12] was 618000 M⁻¹ s⁻¹. For the same binder, the EC50 [13] was 0.67 nM.

B3: PRO386 (bispecific antibody)
light: DIQMTQSPSSLPASLGDRVTINCQASQDISNYLNWYQQKPGKAPKLLIYYTNKLADGVPSRFSGSGSGRDSSFTISSLESEDIGSYYCQQYYNYPWTFGPGTKLEIKRRTVAAPSVFIFPPSDEQLKSGTASVVCLLNNFYPREAKVQWKVDNALQSGNSQESVTEQDSKDSTYSLSSTLTLSKADYEKHKVYACEVTHQGLSSPVTKSFNRGECGGGGSGGGGSHMDIQMTQSPSSLSASVGDRVTITCQASENIYSFLAWYQQKPGKAPKLLIYSASKLAAGVPSRFSGSGSGTDFTLTISSLQPEDFATYYCQQTNRYSNPDIYNVFGQGTKLTVLGGGGGSGGGGSGGGGSGGGGSEVQLVESGGGLVQPGGSLRLSCAASGIDFNSNYYMCWVRQAPGKGLEWIGCIYVGSHVNTYYANWAKGRFTISRDNSKNTVYLQMNSLRAEDTAVYYCATSGSSVLYFKFWGQGTLVTVSS
heavy: EVQLVESGGGLVQPGKSLKLSCEASGFTFSGYGMHWVRQAPGRGLESVAYITSSSINIKYADAVKGRFTVSRDNAKNLLFLQMNILKSEDTAMYYCARFDWDKNYWGQGTMVTVSSASTKGPSVFPLAPSSKSTSGGTAALGCLVKDYFPEPVTVSWNSGALTSGVHTFPAVLQSSGLYSLSSVVTVPSSSLGTQTYICNVNHKPSNTKVDKKVEPKSCGGGGSGGGGSHMDIQMTQSPSSLSASVGDRVTITCQASENIYSFLAWYQQKPGKAPKLLIYSASKLAAGVPSRFSGSGSGTDFTLTISSLQPEDFATYYCQQTNRYSNPDIYNVFGQGTKLTVLGGGGGSGGGGSGGGGSGGGGSEVQLVESGGGLVQPGGSLRLSCAASGIDFNSNYYMCWVRQAPGKGLEWIGCIYVGSHVNTYYANWAKGRFTISRDNSKNTVYLQMNSLRAEDTAVYYCATSGSSVLYFKFWGQGTLVTVSS
notes: Heterodimer; 2C11 Fab with an anti-IL23R scFv 14-11-D07-sc01 on the C-terminus of each chain; also called Tribody; bispecific, trivalent Fab-scFv fusion surrogate molecule
Work on B3 yielded a Kd (mouse IL23R [14]) of 0.583 nM, a koff (mouse IL23R [14]) of 0.000533 s⁻¹ and a kon (mouse IL23R [14]) of 915000 M⁻¹ s⁻¹. For the same binder, the Kd (mouse CD3ε [15]) was 11.5 nM, the koff (mouse CD3ε [15]) was 0.00196 s⁻¹ and the kon (mouse CD3ε [15]) was 171000 M⁻¹ s⁻¹.

B4: PRO387 (bispecific antibody)
chain: DIQMTQSPSSLSASVGDRVTITCQASENIYSFLAWYQQKPGKAPKLLIYSASKLAAGVPSRFSGSGSGTDFTLTISSLQPEDFATYYCQQTNRYSNPDIYNVFGQGTKLTVLGGGGGSEVQLVESGGGLVQPGKSLKLSCEASGFTFSGYGMHWVRQAPGRGLESVAYITSSSINIKYADAVKGRFTVSRDNAKNLLFLQMNILKSEDTAMYYCARFDWDKNYWGQGTMVTVSSGGGGSGGGGSGGGGSGGGGSDIQMTQSPSSLPASLGDRVTINCQASQDISNYLNWYQQKPGKAPKLLIYYTNKLADGVPSRFSGSGSGRDSSFTISSLESEDIGSYYCQQYYNYPWTFGPGTKLEIKRGGGGSEVQLVESGGGLVQPGGSLRLSCAASGIDFNSNYYMCWVRQAPGKGLEWIGCIYVGSHVNTYYANWAKGRFTISRDNSKNTVYLQMNSLRAEDTAVYYCATSGSSVLYFKFWGQGTLVTVSS
notes: scDb VLA-L1-VHB-L2-VLB-L3-VHA, A = anti-IL23R, B = anti-mouse CD3ε 2C11; also called bispecific single-chain diabody surrogate (scDb); anti-IL23R 14-11-D07-sc01 × anti-mCD3 2C11
Binder B4 has a Kd (mouse IL23R [16]) of 4.66 nM, a koff (mouse IL23R [16]) of 0.00326 s⁻¹ and a kon (mouse IL23R [16]) of 701000 M⁻¹ s⁻¹. For the same binder, the Kd (mouse CD3ε [17]) was 9.11 nM, the koff (mouse CD3ε [17]) was 0.00213 s⁻¹ and the kon (mouse CD3ε [17]) was 233000 M⁻¹ s⁻¹.
